This test deals with F-actin (actin purified from rabbit white skeletal muscle, polymerised) (rabbit), P68135. The test is described as follows: co-sedimentation; various concentrations of His-α-actinin in A50 buffer (50 mM HEPES-KOH pH 7.6, 50 mM KCl, 5 mM MgCl2, 1 mM EGTA) mixed with 10 μM G-actin on ice, 25°C for 60 min to polymerise actin, centrifuged at 100,000 ×g for 10 min at 25°C; supernatant and pellet on SDS-PAGE, Coomassie; model fitting; apparent dissociation constant. The conditions noted are these: remark: other sources report otherwise.

B1: Recombinant human α-actinin I (6×His-tagged), P12814 1-892 (natural protein)
chain: MDHYDSQQTNDYMQPEEDWDRDLLLDPAWEKQQRKTFTAWCNSHLRKAGTQIENIEEDFRDGLKLMLLLEVISGERLAKPERGKMRVHKISNVNKALDFIASKGVKLVSIGAEEIVDGNVKMTLGMIWTIILRFAIQDISVEETSAKEGLLLWCQRKTAPYKNVNIQNFHISWKDGLGFCALIHRHRPELIDYGKLRKDDPLTNLNTAFDVAEKYLDIPKMLDAEDIVGTARPDEKAIMTYVSSFYHAFSGAQKAETAANRICKVLAVNQENEQLMEDYEKLASDLLEWIRRTIPWLENRVPENTMHAMQQKLEDFRDYRRLHKPPKVQEKCQLEINFNTLQTKLRLSNRPAFMPSEGRMVSDINNAWGCLEQVEKGYEEWLLNEIRRLERLDHLAEKFRQKASIHEAWTDGKEAMLRQKDYETATLSEIKALLKKHEAFESDLAAHQDRVEQIAAIAQELNELDYYDSPSVNARCQKICDQWDNLGALTQKRREALERTEKLLETIDQLYLEYAKRAAPFNNWMEGAMEDLQDTFIVHTIEEIQGLTTAHEQFKATLPDADKERLAILGIHNEVSKIVQTYHVNMAGTNPYTTITPQEINGKWDHVRQLVPRRDQALTEEHARQQHNERLRKQFGAQANVIGPWIQTKMEEIGRISIEMHGTLEDQLSHLRQYEKSIVNYKPKIDQLEGDHQLIQEALIFDNKHTNYTMEHIRVGWEQLLTTIARTINEVENQILTRDAKGISQEQMNEFRASFNHFDRDHSGTLGPEEFKACLISLGYDIGNDPQGEAEFARIMSIVDPNRLGVVTFQAFIDFMSRETADTDTADQVMASFKILAGDKNYITMDELRRELPPDQAEYCIARMAPYTGPDSVPGALDYMSFSTALYGESDL
Take B1: the Kd turned out to be 1400 nM.

The record behind these values is article doi:10.1101/2025.05.18.654456.
